± gives the uncertainty stated by the source.
test: amyloid nucleation score (Sup35N fusion, yeast selection) (log enrichment); library NNK3; higher = more nucleation; inactive = no reads after selection
Method in brief: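 The nucleation score is the DiMSum log enrichment of output over input reads, centred on the mode score of non-aggregating sequences. Only sequences with 100 or more input reads were scored, using Illumina sequencing of input and output plasmid inserts. Psi-negative yeast expressing Sup35N fused to peptides of 20 random codons were induced 24 hours with 100 μM copper sulfate and grown 7 days at 30°C on medium lacking adenine and uracil.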

Substance	amyloid nucleation score
MVYPQLYTTKVVNVVPGLGS	inactive
MWACSKYRWMHATDGVGLTY	0.674 ± 0.17
MWAGCGVSGPALGHAGSARR	inactive
MWFAKAGTCNGSWLDMLSGW	inactive
MWGSM	inactive
MWLPPAVQVLLILKAVIVKL	inactive
MWVPTRHKGLYFVNVVFACH	inactive
MYDLDHSFCTLLTEVRALMK	-0.396 ± 1.4
MYIVRRKTICET	inactive
MYNLNVLNE	inactive
MYRCKKGGLCKLSGCTSKAL	inactive
MYRQGGCVIHWSNVG	inactive
MYTISVKAMNGWYLSLKVGC	inactive
MYTKNPSVSILCFDENGERA	inactive
MYTQCLVYSR	inactive
MYVTIGASNKSYRLLFVARW	-0.368 ± 0.75
NAFNL	inactive
NALTNSVKLFVLQTIVVYMR	inactive
NALYTSLYRLNLGFWAQMLP	inactive
NAQDPIGSGYVQ	inactive

Substance	amyloid nucleation score
NASIRDGNMTFFSQAVTRLA	inactive
NATIFFMQ	0.605 ± 0.24
NCCPIIPVDYNYNRLPIIVG	inactive
NCDNSNGYSTHEIEDRSTLR	inactive
NCMFWGCVTLRADFVRTINR	1.5 ± 0.14
NCRVCCRYVNSSPDV	-0.974 ± 1.7
NCSGQTGFGPVMSYWTIDVR	-0.022 ± 0.59
NCTFAGLAMFGNILN	inactive
NCTNFALVSNLASTRTIADW	inactive
NDASYDLRRWWCKTAPGLSG	inactive
NDCLFNKILAVRSFTLLAGK	inactive
NDFLCI	inactive
NDGPKVARMGSVR	inactive
NDKYWTIHMTSLGQRLIFAE	1.25 ± 0.15
NDLSGKTCNGRRVEDRAPMA	-0.114 ± 0.44
NDNSSATRSHSGLATRGGLV	inactive
NDTWCVLFRTPKLLCMSVFT	inactive
NDVSRNLSMFNY	inactive
NDWREANLF	inactive
NEVETESCIELTFPMQYWQV	2.24 ± 0.093

Substance	amyloid nucleation score
NFFITTDPPGFR	inactive
NFIYILLSIINYWWCTYIVY	inactive
NFLNCVFRYIYD	2.54 ± 0.067
NFLRCVHFLKFFMDFNGTSG	inactive
NFLVSIHVFFYCWLSMFTYW	inactive
NFNCSANWYHLSLLTMNHEV	inactive
NFRFPTNGNYGNYLKKESFV	inactive
NFRVLVVNVKTFLMVVKVMF	inactive
NFSFELMKDHYIGLQMVV	inactive
NFSIYYLDLISR	1.95 ± 0.098
NFSMMPTMLRRVWIGMCSSM	inactive
NFTGSCVPVIRQMASCFSSF	inactive
NFTVFYLRC	1.67 ± 0.12
NFVQFSTTISFDHNCHMVGC	inactive
NFVRGTGFVGRLESLNWKV	inactive
NFYRCGVWHLNWYEYDVLRL	inactive
NFYRFNIVRNNVLM	inactive
NGFMDNCAVSCRTIIVVSYR	2.59 ± 0.074
NGSVSVKSLIFLDDCCSSWA	inactive
